In patent publication US20130280282A1, “DR5 LIGAND DRUG CONJUGATES” (Daiichi Sankyo Co., Ltd., priority 2012, published 2013):

B1: hB273 antibody (humanized B273) (antibody, human IgG1, kappa, V domains shown)
VH: EVQLVQSGAEVKKPGASVKVSCKASGYSFIGYFMNWMKQSPGMSLEWIGRFNPYNEDTFYNQKFKGKATLTVDKSTSTAYMELSSLRSEDTAVYFCARSAYYFDSGGYFDYWGQGTLVTVSS
VL: DIVMTQSPLSLPVTPGEPASISCRSSQSLVHSNKNTYLHWYLQKPGQSPQLLIYKVSNRFSGVPDRFSGSGSGTDFTLKISRVEAEDVGVYYCSQSTHVPWTFGPGTKVEIKR
notes: Anti-DR5 antibody
B2: hB273-vc-MMAE (antibody drug conjugate of hB273 conjugated with mc-vc-MMAE) (antibody, V domains shown)
VH: B1 VH
VL: B1 VL
modifications: mc-vc-MMAE drug-linker on cysteine thiols freed by partial TCEP reduction; average about 3.5 to 4.5 drug-linker units per antibody; positions not given
notes: Antibody drug conjugate of hB273; also called hB273-veMMAE

Experiments:
[1] = target: T1, recombinant soluble DR5 protein (rsDR5) (human, UniProt O14763 56-183); test: SPR, BIAcore 3000; antibody captured by anti-human IgG (Fc) on CM5 chip, rsDR5 0.3-85 nM as analyte
T1 construct: Expressed in E. coli from pET21b(+)-sDR5 and purified on Ni-NTA; also called DR5 extracellular domain protein
Procedure: (§1) For the direct coupling of anti-human IgG (Fc), CM5 sensor chips and the reference flow cells were coated with ˜1500-2000 RU in HBS-EP+(10 mM HEPES buffer, pH 7.4, 0.15 M NaCl, 3 mM EDTA, and 0.05% Surfactant P20). […] For regeneration, 3 M MgCl₂ was loaded at flow rate of 10 μl/min for 30 sec. All sensograms were globally fitted using BIAevaluation software 3.1 (Biacore) to determine the dissociation constant KD (KD=koff/kₒₙ).

[2] = target: T1, recombinant soluble DR5 protein (rsDR5); test: SPR, BIAcore 3000; conjugate captured by anti-human IgG (Fc) on CM5 chip, rsDR5 0.3-85 nM as analyte
Procedure: as §1

Binder	Kd [1]	kon [1]	Kd [2]
B1	2.6 nM	2.6e+06 M⁻¹ s⁻¹	–
B2	–	–	3.2 nM
